Experimental data as given in paper PMC2800207.

Experiments:
Assay in all cases: fluorescence anisotropy
NusB D118N (NusB101) = NusB D118N (NusB101) (Escherichia coli, UniProt P0A780 1-139, D118N)
NusB = NusB (Escherichia coli, UniProt P0A780 1-139)
NusB D118A = NusB D118A (Escherichia coli, UniProt P0A780 1-139, D118A)
NusB D118R = NusB D118R (Escherichia coli, UniProt P0A780 1-139, D118R)
NusB D118K = NusB D118K (Escherichia coli, UniProt P0A780 1-139, D118K)
NusB K2E = NusB K2E (Escherichia coli, UniProt P0A780 1-139, K2E)

| Binder | binding result (NusB D118N (NusB101)) | binding result (NusB) | Kd (NusB) [nM] | Kd (NusB D118N (NusB101)) [nM] | further results |
| --- | --- | --- | --- | --- | --- |
| AUAGCGGCCACAUUCCA (ssRNA) [nutR BoxA69-spacer (boxA transversion)] | no binding | no binding |  |  |  |
| CGCUCGUACACAUUCCA (ssRNA) [nutR BoxA(U39G)-spacer] |  |  | 1600 ± 800 |  |  |
| CGCUCUUACACAUUCCA (ssRNA) [nutR BoxA-spacer] |  |  |  |  | binding result (NusB D118A): no binding; binding result (NusB D118R): no binding; binding result (NusB D118K): no binding |
| CACUGCUCUUUAACAAUUA (ssRNA) [rrnG BoxA-spacer] |  |  | 130 ± 20 | 24 ± 4 | Kd (NusB K2E): 3600 nM |
| AAAAUUAA (ssRNA) [nutL spacer] | no binding | no binding |  |  |  |
| CGCUCUUA (ssRNA) [nutR BoxA] |  |  | 1600 ± 100 | 290 ± 15 |  |
| CACAUUCCA (ssRNA) [nutR spacer] | no binding | no binding |  |  |  |
| UGCUCUUUA (ssRNA) [rrnG BoxA] |  |  | 200 ± 10 | 50 ± 15 |  |
| CGCUCUUAAAAAUUAA (ssRNA) [nutL BoxA-spacer] |  |  | 2200 ± 800 |  | Kd (NusB K2E): 5100 nM |
| CGCUAUUACACAUUCCA (ssRNA) [nutR BoxA16-spacer (C38A)] |  |  | 5100 ± 1400 |  |  |
